Results: US20090068110A1, “ANTIBODIES TO INSULIN-LIKE GROWTH FACTOR RECEPTOR” (Genentech, Inc., priority 2006, published 2009)

Experiments:
[1] = biological target: human IGF-1R-ECD (secreted recombinant extracellular domain, amino acids 1-902, tagged with 10 or 12 histidine residues at the carboxyl terminus) (human) (UniProt P08069); test: competition ELISA: antibody pre-incubated on plate-coated human IGF-1R-ECD, then biotinylated IGF-I (blocked ligand), streptavidin-HRP, A450
[2] = biological target: human IGF-1R-ECD (secreted recombinant extracellular domain, amino acids 1-902, tagged with 10 or 12 histidine residues at the carboxyl terminus) (human) (UniProt P08069); test: solid-phase binding assay: serially diluted antibody on plate-coated human IGF-1R-ECD, then biotinylated IGF-I (blocked ligand), streptavidin-HRP, A450; n=3
[3] = biological target: human IGF-1R-ECD (secreted recombinant extracellular domain, amino acids 1-902, tagged with 10 or 12 histidine residues at the carboxyl terminus) (human) (UniProt P08069); test: solid-phase binding assay: serially diluted antibody on plate-coated human IGF-1R-ECD, then biotinylated IGF-II (blocked ligand), streptavidin-HRP, A450; n=3
SW527 xenograft tumors = test: SW527 breast-cancer xenograft model; type: in vivo, SCID beige mice
Text: Female nude (nu/nu) and C.B-17 SCID beige mice were obtained from Charles Rivers Laboratories, Inc. (Hollister, Calif.). Animals were about six to eight weeks old and weighed about 25 grams each. Mice were acclimated to study conditions for at least three days before tumor-cell inoculations. The animals were housed in standard rodent micro-isolator cages. Only animals that appeared to be healthy and that were free of obvious abnormalities were used for the study. Each mouse was given a subcutaneous injection of SK-N-AS cells (10 million), SW527 cells (5 million), Colo205 cells (5 million), or A549 cells (5 million) into the dorsal right flank in a volume of 0.2 mL. Data collected from each experimental group were expressed as mean tumor volume±the standard error of the mean (SEM). Tumors were monitored until they reached a mean volume of 130-260 mm3. […] Tumors were measured twice weekly throughout the experiment starting on the first day of treatment. Tumor volumes were measured in two dimensions (length and width) using ULTRA CAL-IV™ calipers (Model 54-10-111, Fred V. Fowler Company, Inc.; Newton, Mass.), and calculated using the formula of: […]
Tumor-inhibition and body-weight graphs were plotted using […]™ 3.6 software (Synergy Software; Reading, Pa.). […]
Tumor incidence was determined by the number of measurable tumors in each group. […]

[4] = biological target: human IGF-1R-ECD (secreted recombinant extracellular domain, amino acids 1-902, tagged with 10 or 12 histidine residues at the carboxyl terminus) (human) (UniProt P08069); test: BIACORE surface plasmon resonance: IGF-1R immobilized on CM5 chip (about 500 RU), IgG injected 250-0.78 nM, 25 C, 1:1 Langmuir model (apparent affinity)
cynomolgus-monkey IGF-1R = cynomolgus-monkey IGF-1R (cynomolgus monkey, UniProt G7P9I7 31-908); test: as above
[5] = biological target: human IGF-1R-ECD (secreted recombinant extracellular domain, amino acids 1-902, tagged with 10 or 12 histidine residues at the carboxyl terminus) (human) (UniProt P08069); test: BIACORE surface plasmon resonance: IGF-1R immobilized on CM5 chip (about 500 RU), Fab injected 500-3.1 nM, 25 C, 1:1 Langmuir model
[6] = biological target: murine IGF-1R-ECD (murine) (UniProt Q60751); test: as above
human IGF-1R-ECD = biological target: T1, human IGF-1R-ECD (Homo sapiens, UniProt P08069); test: competitive ELISA, blocking of IGF-I/II and IGF-1R interaction; type: binding; conditions: antibody 100 nM to 0.0976 nM, biotinyl-IGF-I or IGF-II 60 ng/ml
T1 construct: containing the extracellular domain (ECD, amino acids 1-902) tagged with 10 or 12 histidine residues at the carboxyl terminus; His10 or His12 (C); made in house; host or cells: CHO cells
Experimental: To determine whether the anti-IGF-1R antibodies could block ligand/receptor interaction, competitive ELISA was utilized. Human IGF-1R-ECD was coated overnight at 4° C. at 1 μg/ml in a 96-well immunoplate (Nalge Nunc International, Rochester, N.Y., USA). The ELISA plate was washed with wash buffer (PBS, 0.05% TWEEN™ 20 surfactant, pH 7.4), and 150 μl/well of blocking buffer (PBS with 0.5% BSA) was added for one hour at room temperature with gentle agitation. Purified anti-IGF-1R antibodies were first subjected to a two-fold dilution from 100 nM to 0.0976 nM in assay buffer (PBS, 0.5% BSA and 0.05% TWEEN™ 20 surfactant, pH 7.4) and added to the immunoplate to incubate at room temperature for one hour. Biothinyl-IGF-I or IGF-II at 60 ng/ml concentrations (Cell Science, Canton, Mass., USA) was then added and incubated for another 30 minutes. The ELISA plate was washed three times, and 100 μl/well of streptavidin-HRP (GE Healthcare, Piscataway, N.J., USA) at a dilution of 1:6,000 was added for 20 minutes. Color development was conducted as described in conjunction with the direct ELISA. The selected anti-IGF-1R antibodies inhibited IGF-I or IGF-II binding to IGF-1R to various degrees (FIGS. 19A and 19B for IGF-I and IGF-II, respectively).

[7] = system: IGF-1R signaling (phospho-IGF-1R, AKT, ERK1/2); test: Western blotting of IGF-1R signaling in MCF7 cells; type: cell-based, human
Experimental: Also examined was the effect of these antibodies on ligand-dependent IGF-1R signaling by directly analyzing IGF-1R phosphorylation as well as major downstream pathways, such as AKT and MAPK activation. In this assay, MCF7 cells were grown in 6-well plates and serum was withdrawn for 16 hours. […] The cells were directly lysed in SDS sample buffer, and the lysate was analyzed by Western blotting using antibodies against IGF-1R, phospho-IGF-1R, AKT, phospho-AKT, ERK1/2, phospho-ERK1/2 (also called MAPK1/2 and phospho-MAPK1/2) (all from Cell Signaling Technology, Inc.; Beverly, Mass., USA).
For the IGF-1R signaling pathway analysis, MCF7 cells were grown in six-well plates for 24 hours and then serum starved (serum-free and phenol-free RPMI medium supplemented with 1 mg/mL BSA) overnight. The cells were first incubated with h10H5 for 20 minutes, then stimulated with 50 ng/mL IGF-1 or 100 ng/mL IGF-11 for ten minutes. Cells were directly lysed in SDS sample buffer to preserve protein phosphorylation. After brief sonication, the lysates were separated by SDS-PAGE and transferred to nitrocellulose membranes (Invitrogen; Carlsbad, Calif.), which were probed with anti-phospho-IGF-1R, AKT, and ERK1/2 antibodies. The same blots were then stripped using Stripping Buffer™ (Pierce Biotechnology; Rockford, Ill.) and re-probed with antibodies against total IGF-1R β, AKT, and ERK1/2.

IGF-1R = IGF-1R (Homo sapiens, UniProt P08069); test: KIRA assay of IGF-1R phosphorylation in MCF7 cells; type: cell-based; design: IGF-1R is normally localized at the plasma membrane of MCF7 cells; endogenous in cells; host or cells: MCF7; conditions: IGF-I 10 ng/ml or IGF-II 50 ng/ml; ranking upon IGF-II stimulation
Experimental: Also examined was whether the blocking activity of these antibodies was sufficient to interfere with receptor activation, which is measured by IGF-1R phosphorylation. A KIRA assay (kinase receptor activation) was utilized to perform quantitative analysis of IGF-1R phosphorylation in MCF7 cells. Anti-IGF-1R antibodies in serial dilutions (0.19 to 200 nM in medium) were added to MCF7 cells in 96-well plates for one hour. IGF-I (10 ng/ml) or IGF-11 (50 ng/ml) was subsequently added and incubated for ten minutes. The cells were lysed, and the resulting lysates were transferred to an ELISA plate, which was coated with IGF-1R-capturing antibody 3B7 (250 ng/well). After incubation for two hours, the cell lysate was removed, and the plates were washed. Phosphotyrosine-specific antibody 4G10 (Upstate, Charlottesville, Va., USA) was added to detect IGF-1R phosphorylation through TMB peroxidase substrate.

Sequence of cynomolgus-monkey IGF-1R (G7P9I7 entry or part of it): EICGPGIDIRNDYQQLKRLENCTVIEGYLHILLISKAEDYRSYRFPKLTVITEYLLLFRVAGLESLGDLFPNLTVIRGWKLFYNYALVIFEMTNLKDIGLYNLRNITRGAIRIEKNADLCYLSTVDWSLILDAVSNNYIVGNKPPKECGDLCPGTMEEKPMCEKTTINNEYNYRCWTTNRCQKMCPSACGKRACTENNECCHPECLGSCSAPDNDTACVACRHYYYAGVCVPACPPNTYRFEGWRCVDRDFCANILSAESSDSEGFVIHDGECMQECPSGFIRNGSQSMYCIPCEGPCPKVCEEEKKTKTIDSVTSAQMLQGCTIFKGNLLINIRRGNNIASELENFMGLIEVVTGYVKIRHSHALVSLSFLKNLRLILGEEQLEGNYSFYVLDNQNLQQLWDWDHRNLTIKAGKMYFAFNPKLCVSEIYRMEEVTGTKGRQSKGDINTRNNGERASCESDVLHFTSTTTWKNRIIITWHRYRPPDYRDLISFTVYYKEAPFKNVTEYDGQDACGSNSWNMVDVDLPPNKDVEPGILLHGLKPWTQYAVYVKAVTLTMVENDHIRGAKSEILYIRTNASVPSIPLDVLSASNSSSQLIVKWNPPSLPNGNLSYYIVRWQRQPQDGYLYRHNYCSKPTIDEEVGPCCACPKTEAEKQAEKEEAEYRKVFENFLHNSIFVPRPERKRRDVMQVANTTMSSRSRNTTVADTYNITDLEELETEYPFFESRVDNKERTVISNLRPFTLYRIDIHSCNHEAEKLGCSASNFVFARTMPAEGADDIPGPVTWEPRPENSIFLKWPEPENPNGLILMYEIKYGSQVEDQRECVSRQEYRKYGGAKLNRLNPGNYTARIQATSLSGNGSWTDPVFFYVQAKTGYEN

IR3, commercial anti-IGF-1R antibody
IC50 (read off the curve) [1]: 5 nM
IC50 (read off the curve) [2]: 8 µg/mL
IC50 (read off the curve) [3]: 5 µg/mL

CC(=O)O[C@@]12CO[C@@H]1C[C@H](O)[C@@]1(C)C(=O)[C@H](O)C3=C(C)[C@@H](OC(=O)[C@H](O)[C@@H](NC(=O)OC(C)(C)C)c4ccccc4)C[C@@](O)([C@@H](OC(=O)c4ccccc4)[C@H]21)C3(C)C [docetaxel]
TGI on Day 14 (SW527 xenograft tumors; Example 5, h10H5 5 mg/kg weekly IP, docetaxel 12.5 mg/kg IV Days 0, 4, 8, B20-4.1 10 mg/kg weekly IP): 54%
body weight losses leading to euthanasia (SW527 xenograft tumors; single-agent docetaxel 12.5 mg/kg, two mice Day 8, two mice Day 12): > 20%

B1: chimeric 10H5-IgG (antibody, V domains shown)
VH: QVQLQQPGAELVKPGASVTLSCKASGYTFTRFWIHWVKQRPGQGLEWIGEINPSNGRTNYNENFKNKATLTVDTSSSTAYMQLSSLTSEVSVVYYCARGGRLDQWGQGTT
VL: DIVMTQSQKFMSTSLGDRVSVTCKASQNVGSNVAWYQQKPGQSPEALIYSASYRYSGVPDRFTGSGSGTDFTLTISNVQSEDLAEYFCHQYNNYPYTFGGGTKVEIKR
notes: also called human chimeric 10H5
Kd [4]: 0.1 nM
Kd (cynomolgus-monkey IGF-1R): 0.13 nM

B2: YW95.6 (Fab, V domains shown)
VH: EVQLVESGGGLVQPGGSLRLSCAASGFTFSSYAMSWVRQAPGKGLEWVSRISPSGGSTYYADSVKGRFTISADTSKNTAYLQMNSLRAEDTAVYYCAREEYYYWGAMDVWGQGTLVTVSS
VL: DIQMTQSPSSLSASVGDRVTITCRASQSISSYLAWYQQKPGKAPKLLIYGASSRASGVPSRFSGSGSGTDFTLTISSLQPEDFATYYCQQYYSSPLTFGQGTKVEIK
Kd [5]: 7.3 nM
Kd [6]: 8.6 nM

B3: chimeric 9F2-IgG (antibody, V domains shown)
VH: QIQLVQSGPELKKPGETVKISCKASGYTLANYGMNWVKQAPGKGFKWMGWINTNTGKPTYSDEFKGRFVFSLETSASTAYLLINNLSNEDTATYFCARSIYYYGSRYFNVWGAGTT
VL: DIQMTQSTSSLSASLGDRVTISCRASQDINNYLTWYQQKPDGTVKLLIYYTSRLHSGVPSRFSGSGSGTDYSLTITNLEQEDFATYFCQQGNTLPWTFGEGTKVEIKR
notes: also called human chimeric 9F2
Kd (cynomolgus-monkey IGF-1R): 0.17 nM

B4: 2B4: mouse monoclonal anti-IGF-1R antibody from hybridoma 2B4.2.8, ATCC PTA-7009 (antibody, V domains shown)
VH: QIQLVQSGPELKKPGETVKISCKASGYNLANYGLNWVKQAPGEGLKWMGWINTNTGAPTYAEEFKGRFVFFLETSASTAYLQINNLSDEDTATYFCARSIYYYASRYFNVWGAGTS
VL: DIQMTQTTSSLSASLGDKVTISCRASQDISNYLNWYQQKPDGTIKLLIYYTSRLHSGIPSRFSGSGSGTDYSLTISNLEQEDIATYFCQQGNTLPWTFGGGTKVEIKR
inhibition of IGF-I or IGF-II binding to IGF-1R (human IGF-1R-ECD): most potent group
inhibition of IGF-I-mediated AKT activation ([7]; serum-starved MCF7, IGF-I 50 ng/ml): potently prevented AKT activation
inhibition of IGF-II-mediated IGF-1R phosphorylation and downstream AKT and MAPK1/2 activation ([7]; serum-starved MCF7, IGF-II 100 ng/ml): remained as strong inhibitors
inhibition of IGF-I/II-mediated IGF-1R phosphorylation (KIRA) (IGF-1R): most effective group
